Measurements: patent US12391751B2, “Antibody against advanced glycation end products and use thereof” (Bloom Technology Corporation, priority 2018, dated 2025)

Key:
mouse retinal tissue = experiment: Retinal tissue staining of diabetic mouse and control mouse (Example 36); conditions: diabetic mice compared with control mice; antibody 1 mg/mL diluted 500-fold; Alexa 594 secondary
Protocol: A C57BL6/J mouse (CLEA Japan, Inc.) on 13 days of pregnancy was purchased, and child mice were obtained. For diabetic mice, streptozotocin (FUJIFILM Wako Pure Chemical Corp.) was dissolved at 5 mg/mL in saline (Otsuka Pharmaceutical Co., Ltd.) and subcutaneously administered at 300 μL to a male child mouse 2 days after birth. For control mice, saline was subcutaneously administered at 300 μL to a male child mouse 2 days after birth. After living together with the mother mouse for 4 weeks and subsequent weaning, the diabetic mice were raised with HFD32 (CLEA Japan, Inc.) for 8 weeks. The control mice were raised with CE-2 (CLEA Japan Inc.) for 8 weeks.
1.875 mL of Domitor (Nippon Zenyaku Kogyo Co., Ltd.), 2 mL of midazolam (Sandoz K.K.), 2.5 mL of Vetorphale (Meiji Seika Pharma Co., Ltd.), and 18.625 mL of saline were mixed to prepare a three drug-mixed anesthetic. The body weight of each mouse was measured with a scale (TANITA Corp.), and the three drug-mixed anesthetic was intraperitoneally administered at […]. […]
Acetone (FUJIFILM Wako Pure Chemical Corp.) was incubated for 16 hours or longer in a freezer (Fukushima Industries Corp.) set to −30° C. to prepare cold acetone. […] Then, the fluorescence of Alexa 594 in the retina was observed under a confocal laser microscope (Olympus Corp.).

[1] = biological target: T1, reaction of the SJ-5 antibody with A-peak-BSA (Bos taurus, UniProt P02769); experiment: Cross-competition with HRP-labeled SJ-5 antibody by competitive ELISA (Example 33); type: binding; conditions: competitor antibody 0.049 to 50 μg/mL
T1 construct: made in house
T1 sequence (P02769 25-607): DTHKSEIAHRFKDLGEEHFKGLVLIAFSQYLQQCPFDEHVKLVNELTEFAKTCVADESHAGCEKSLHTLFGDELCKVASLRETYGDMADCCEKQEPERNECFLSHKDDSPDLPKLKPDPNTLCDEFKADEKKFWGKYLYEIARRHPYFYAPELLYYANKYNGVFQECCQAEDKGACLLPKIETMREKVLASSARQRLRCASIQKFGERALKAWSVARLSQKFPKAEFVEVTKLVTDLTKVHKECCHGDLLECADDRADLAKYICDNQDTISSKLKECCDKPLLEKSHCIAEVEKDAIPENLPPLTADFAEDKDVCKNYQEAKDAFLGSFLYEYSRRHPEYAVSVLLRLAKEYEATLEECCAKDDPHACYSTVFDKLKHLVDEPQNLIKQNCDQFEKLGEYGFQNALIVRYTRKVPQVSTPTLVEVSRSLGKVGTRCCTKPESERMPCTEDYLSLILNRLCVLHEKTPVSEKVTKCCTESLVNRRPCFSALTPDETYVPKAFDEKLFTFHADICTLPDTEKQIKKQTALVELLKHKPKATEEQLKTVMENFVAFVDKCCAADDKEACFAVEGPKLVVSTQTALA
Protocol: A solution of A-peak-BSA prepared into 1 μg/mL in a coating solution was added at 100 μL/well to a 96-well microtiter plate (Costar) and incubated overnight at 4° C.
Each well after the immobilization treatment was washed three times with a washing solution (300 μL), and PBS containing 0.05% Tween 20 (PBS-T) and containing 0.5% gelatin dissolved therein (200 μL) was added thereto and left standing at room temperature for 1 hour.
The PB-1 antibody, a mouse IgG isotype control (Ctrl-mIgG, Thermo Fisher Scientific Inc.), and the anti-GA-pyridine antibody 2A2 (Cosmo Bio Co., Ltd.) were each diluted with PBS-T containing 0.1% gelatin to prepare 4-fold dilution series (0.049 to 50 μg/mL). Also, a HRP-labeled SJ-5 antibody (Example 4) was diluted 10000-fold with PBS-T containing 0.1% gelatin.
Each well treated with the blocking solution was washed three times with a washing solution (300 μL), and the sample solutions of 4-fold dilution series (50 μL each) and the HRP-labeled SJ-5 antibody dilution solution (50 μL) were added thereto, stirred with a plate mixer for 2 minutes, and then incubated at room temperature for 1 hour. […]
Absorbance was measured at a dominant wavelength of 450 nm and a sub-wavelength of 650 nm with a microplate reader (Cytation 5, BioTek Instrument Inc.), and the absorbance at the sub-wavelength was subtracted from the absorbance at the dominant wavelength.

B1: PB-1: mouse monoclonal antibody raised against A-peak-BSA; heavy-chain variable region SEQ ID NO 18, light-chain variable region SEQ ID NO 22 (antibody, listed as Mus musculus, V domains shown)
VH: EVRLQQSGPELVKPGTSVKISCKASGYSFTGYYMHWVKQSPVKSLEWIGRIIPYNGATSYNQNFKDKASLTVDKSSRTAYMDLHSLTSEDSAVYYCARSRYYGRAPYYFDYWGQGTTLTVSS
VL: DVVVTQTPLSLPVSLGDQASISCRSSQSIVHSNGNTYLEWYLQKPGQSPKLLIYKVSNRFSGVPDRISGSGSGTDFTLKISRVEAGDLGVYSCFQGSHVPFTFGSGTKLEIK
staining of retinal ganglion cell layer, internal and external granular layers, retinal pigment epithelial cell layer (mouse retinal tissue): bind strongly | change in absorbance of HRP-labeled SJ-5 binding to A-peak-BSA (cross-competition) [1]: decreased in a PB-1 concentration-dependent manner
